Assay results as given in US20250346678A1 (AP BIOSCIENCES, published 2025).

T1: human OX40 expressed on cells (human, UniProt P43489 29-277)
T1 construct: whole, on cells; also called OX40 expression HEK293 cells
T1 sequence (looked up): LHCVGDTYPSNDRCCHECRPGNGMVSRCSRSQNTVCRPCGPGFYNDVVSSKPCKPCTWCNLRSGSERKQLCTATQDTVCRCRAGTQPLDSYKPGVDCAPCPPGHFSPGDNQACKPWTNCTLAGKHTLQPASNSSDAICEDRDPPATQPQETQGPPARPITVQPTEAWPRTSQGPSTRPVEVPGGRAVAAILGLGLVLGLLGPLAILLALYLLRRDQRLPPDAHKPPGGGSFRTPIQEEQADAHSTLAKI

B1: OM-OX40-A4 (Fab, V domains shown)
VH: QVQLVESGGGLVQPGGSLRLSCAASGFTFSSYEMNWVRQAPGKGLEWVSYISSSGSTIYYADSVKGRFTISRDNAKNSLYLQMNSLRAEDTAVYYCARGGVGDAFDIWGQGTMVTVSS
VL: QSALTQPPSASGSPGQSVTISCTGTSSDVGGYNYVSWYQQHPGKAPKLMIYEVSQRPSGVPDRFSGSKSGNTASLTVSGLQAEDEADYYCSSYAGSNNLGVFGGGTKLTVSS
notes: Fab from the phage library
B2: anti-PD-L1 antibody clone 6 (antibody, human IgG4 S228P, lambda, V domains shown)
VH: QVQLVQSGAEVKKPGSSVKVSCKASGGTFRRYSISWVRQAPGQGLEWMGGIIPVFGAAKYAQKFQGRVTITADEFTSTAYMELSSLTSEDTAVYYCALSGDSDAFDIWGQGTMVTVSS
VL: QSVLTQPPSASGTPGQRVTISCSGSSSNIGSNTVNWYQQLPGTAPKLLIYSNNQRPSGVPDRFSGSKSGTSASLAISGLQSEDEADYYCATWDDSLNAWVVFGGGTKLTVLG
notes: also called PD-L1 clone 6; PD-L1-Clone 6
B3: OM-PD-L1-6 (Fab, V domains shown)
VH: B2 VH
VL: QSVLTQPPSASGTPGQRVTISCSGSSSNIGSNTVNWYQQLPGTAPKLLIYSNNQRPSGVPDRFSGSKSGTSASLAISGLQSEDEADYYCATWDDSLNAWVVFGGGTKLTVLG
notes: Fab from the phage library
B4: OM-OX40-B17 (Fab, V domains shown)
VH: EVQLVESGGVVVQPGGSLRLSCAASGFTFDDYTMHWVRQAPGKGLEWVSLISWDGGSTYYADSVKGRFTISRDNSKNSLYLQMNSLRTEDTALYYCASIYDPPPGSRSALDAFDIWGQGTMVTVSS
VL: SYVLTQPPSVSVTPGKTARIACGGNNLESKIVSWYQQKPGQAPVLVIFYDTDRPSGISERFSGSNSGNTATLTISRVEAGDEADYYCQVWDSNSDHVIFGGGTKLTVLG
notes: Fab from the phage library; variable regions identical to those of OX40 clone B17
B5: OM-OX40-B19 (Fab, V domains shown)
VH: EVQLVESGGGLVKPGGSLRLSCAASGFTFSSYSMNWVRQAPGKGLEWVSSISSSSRYIYYADSVKGRFTISRDNAKNSLYLQMNSLRAEDTAVYYCARQNEDVAFGIWGQGTMVTVSS
VL: B4 VL
notes: Fab from the phage library; variable regions identical to those of OX40 clone B19

Legend:
[1] = biological target: T1, human OX40 expressed on cells; experiment: phage display selection and cell-based ELISA screening
Method: (§1) For the generation of therapeutic antibodies against PD-L1 or OX40, selections with the OmniMab phagemid library were carried out. The phagemid library is generated by AP Biosciences Inc. (APBio Inc.) from a collection of over hundred health donors B cells. Phages for the 1st round of pannings were prepared by Hyperphage (M13K07ΔρIII, Progen, Heidelberg, Germany). Solid phase panning and cell panning against PD-L1 or OX40 were applied for PD-L1 or OX40 specific binder selection and isolation from OmniMab library. […] Bound phages were detected by HRP conjugated anti-M13 antibody (Roche) and TMB substrate was used for signal development. The OD₄₅₀ readings were recorded. The positive binders were isolated and sent for sequencing to confirm the sequence and diversity of heavy chain and light chain.

[2] = biological target: T2, human PD-L1 (human, UniProt Q9NZQ7 19-238, limits assumed); experiment: direct ELISA
T2 construct: also called recombinant PD-L1
T2 sequence (Q9NZQ7 19-238 limits assumed): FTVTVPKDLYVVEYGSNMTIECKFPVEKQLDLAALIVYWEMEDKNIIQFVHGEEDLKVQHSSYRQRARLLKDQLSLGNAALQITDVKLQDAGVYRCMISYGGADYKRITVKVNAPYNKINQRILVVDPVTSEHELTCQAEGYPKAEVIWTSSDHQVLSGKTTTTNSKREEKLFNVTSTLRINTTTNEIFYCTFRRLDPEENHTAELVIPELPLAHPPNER

[3] = biological target: T3, human PD-L1 expressed on cells (human, UniProt Q9NZQ7 19-290); experiment: flow cytometry on stable PD-L1 expression 293 cells, IFN-γ stimulated A549 or WiDr
T3 construct: whole, on cells; also called PD-L1 expression HEK293 cells
T3 sequence (Q9NZQ7 19-290): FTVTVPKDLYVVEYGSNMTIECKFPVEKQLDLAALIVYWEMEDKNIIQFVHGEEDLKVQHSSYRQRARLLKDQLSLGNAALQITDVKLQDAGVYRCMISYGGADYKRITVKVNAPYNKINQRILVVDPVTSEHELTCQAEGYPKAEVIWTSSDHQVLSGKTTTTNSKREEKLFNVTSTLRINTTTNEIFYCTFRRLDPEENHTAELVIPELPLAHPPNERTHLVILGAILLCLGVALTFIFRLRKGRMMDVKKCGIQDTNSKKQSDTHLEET
Text: The bound antibody fusion proteins were detected with Alexa-488 conjugated goat anti-human IgG (H+L) followed by FACS analysis. Isotype antibody was used as negative control for the test.

[4] = biological target: T4, human PD-L1 IgG1 Fc chimera (human, UniProt Q9NZQ7 19-238, limits assumed); experiment: phage display selection and direct ELISA screening
T4 construct: Made by APBio; also called PD-L1-Fc; recombinant human PD-L1-Fc
T4 sequence (Q9NZQ7 19-238 limits assumed, change not shown): as the sequence (Q9NZQ7 19-238 limits assumed) above
Method: as §1

| Binder | binding result [1] | other results |
| --- | --- | --- |
| B1 | binds | – |
| B2 | – | binding result [2]: binds; binding result [3]: binds |
| B3 | – | binding result [4]: binds |
| B4 | binds | – |
| B5 | binds | – |
